Laboratory results published in patent publication US20040110231A1 (Takeda / Millennium, published 2004).
Where no end group is shown, it is not given here. [ ]: non-standard residue; d: D form. Met(O) = CS(=O)CC[C@H](N)C(=O)O

T1: human GPR7 (human, UniProt P48145 1-328)
T1 sequence: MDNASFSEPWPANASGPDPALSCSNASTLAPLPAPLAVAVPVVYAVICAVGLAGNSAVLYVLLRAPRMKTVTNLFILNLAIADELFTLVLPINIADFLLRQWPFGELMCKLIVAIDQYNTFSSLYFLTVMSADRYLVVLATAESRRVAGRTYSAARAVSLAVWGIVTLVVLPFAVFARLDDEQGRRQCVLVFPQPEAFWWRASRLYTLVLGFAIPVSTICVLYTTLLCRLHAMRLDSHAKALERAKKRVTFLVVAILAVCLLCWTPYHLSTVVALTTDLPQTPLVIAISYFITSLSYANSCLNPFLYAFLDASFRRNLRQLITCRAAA


Key:
human GPR8 = human GPR8 (human, UniProt P48146 1-333); assay: cell-based or functional assay
human GPR7 [1] = target: T1, human GPR7; assay: cell-based or functional assay
human GPR7 [2] = target: T1, human GPR7; assay: competition with [125I-Tyr10]-hGPR8L (1-23) as tracer, membrane fraction of human GPR7-expressing CHO cells
Description: The thus prepared cell membrane fraction was diluted in various concentrations with an assay buffer (25 mM Tris-HCl, 5 mM EDTA, 0.05% CHAPS (3-[(3-choramidopropyl)dimethylammonio]-1-propanesulfonate), 0.1% BSA, 0.5 mM PMSF, 1 μg/ml pepstatin, 20 μg/ml leupeptin and 4 μg/ml E-64, pH 7.4). Then, a 200 μl aliquot of the dilution was dispensed into a propylene-made testing tube (Falcon 2053). In order to assay for the total binding, 2 μl of DMSO and 2 μl of 8 nM [¹²⁵I-Tyr¹⁰]-hGPR8L (1-23) was added to the membrane fraction solution. Also, the non-specific binding was assayed by adding 2 μl of a DMSO solution of 1 mM hGPR8L (1-23) and 2 μl of 8 nM [¹²⁵I-Tyr¹⁰]-hGPR8L (1-23) to the membrane fraction solution. After reacting at 25° C. for 75 minutes, the reaction solution was suction-filtrated through a polyethyleneimine-treated Whatman glass filter (GF-F), and the filter was washed twice with ˜1.5 ml of a wash buffer (25 mM Tris-HCl, 5 mM EDTA, 0.05% CHAPS, 0.1% BSA, pH 7.4). After the filtration, the residual radioactivity remained on the filter paper was measured with a γ-counter, and the specific binding was estimated by subtracting the non-specific binding from the total binding.
It could also be verified that the binding inhibition of [¹²⁵I-Tyr¹⁰]-hGPR8L (1-23) against the human GPR7-expressed CHO cell membrane fraction was noted as described above, when rat and mouse homologs (SEQ ID NO:73 and SEQ ID NO:91) to hGPR8L (1-23) and porcine, rat and mouse homologs (SEQ ID NO:57, SEQ ID NO:74 and SEQ ID NO:92) to hGPR8L (1-30).

human GPR7 [3] = target: T1, human GPR7; assay: cell-based or functional assay; remark: listed apart in the source

human GPR8, sequence (P48146 whole entry): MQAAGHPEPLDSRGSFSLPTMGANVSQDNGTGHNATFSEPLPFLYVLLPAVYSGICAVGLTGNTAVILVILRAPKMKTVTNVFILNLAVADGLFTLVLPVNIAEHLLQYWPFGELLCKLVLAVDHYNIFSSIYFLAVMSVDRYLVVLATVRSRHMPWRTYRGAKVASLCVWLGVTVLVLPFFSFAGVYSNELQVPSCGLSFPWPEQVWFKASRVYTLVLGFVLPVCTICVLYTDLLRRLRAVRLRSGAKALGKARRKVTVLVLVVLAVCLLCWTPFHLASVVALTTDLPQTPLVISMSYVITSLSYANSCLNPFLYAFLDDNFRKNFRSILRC

| Binder | GTPγ S binding promoting activity (EC50 nM) (human GPR8) [nM] | GTPγS-Binding promoting activity (EC50 nM) (human GPR7 [1]) [nM] | binding result (human GPR7 [2]) | intracellular cAMP production suppressing activity (IC50) (human GPR7 [3]) [nM] |
| --- | --- | --- | --- | --- |
| XYKHVASPRYHTVGRAAGLLMGL (D-Trp at position 1) [[D-Trp1]-human GPR8 ligand (1-23)] | 7.1 | 2.3 |  |  |
| {3‑indolepropanoyl}-YKHVASPRYHTVGRAAGLLMGL [[N-3-Indolepropanyl-Tyr2]-human GPR8 ligand (2-23)] | 5 | 0.85 |  |  |
| XYKHVASPRYHTVGRAAGLLMGL (Nα-acetyl on Trp1) [[Nα-Acetyl-Trp1]-human GPR8 ligand (1-23)] | 14 | 1.5 |  |  |
| WYKHVASPRYHTVGRAAGL [human GPR8 ligand (1-19)] | 1000 | 84 |  |  |
| WYKHVASPRYHTVGRASGLLMGL (also called mouse homolog to hGPR8L (1-23)) [mouse GPR8 ligand (1-23)] |  |  | binds |  |
| WYKHTASPRYHTVGRAAGLLMGL [porcine GPR8 ligand (1-23)] | 1.5 | 0.35 |  |  |
| WYKHVASPRYHTVGRASGLLMGL (also called rat homolog to hGPR8L (1-23)) [rat GPR8 ligand (1-23)] |  |  | binds |  |
| WYKHVASPRYHTVGRAAGLLMGLRRSPYLW [human GPR8 ligand (1-30)] |  | 0.67 |  |  |
| WYKHVASPRYHTVGRASGLLMGLRRSPYLW (also called rat homologue of the GPR8 ligand peptide (30 residues)) [rat homolog to hGPR8L (1-30)] |  |  | binds |  |
| WYKHVASPRYHTVGRASGLLMGLRRSPYQW (also called mouse homologue of the GPR8 ligand peptide (30 residues)) [mouse homolog to hGPR8L (1-30)] |  |  | binds |  |
| WYKHTASPRYHTVGRAAGLLMGLRRSPYMW (also called porcine homologue of the GPR8 ligand peptide (30 residues)) [porcine homolog to hGPR8L (1-30)] |  |  | binds |  |
| WYKHVASPRYHTVGRAAGLLXGL (Met (O) (methionine sulfoxide) at position 21) [oxidized human GPR8 ligand (1-23)] | 1.4 | 1.6 |  |  |
| WYKHTASPRYHTVGRAAGLL[Met(O)]GL [oxidized porcine GPR8 ligand (1-23)] | 0.73 | 1.2 |  |  |
| XYKHVASPRYHTVGRAAGLLMGL (N-terminal Fmoc (N-9-fluorenylmethoxycarbonyl) on Trp1) [Fmoc-human GPR8 ligand (1-23)] | 240 | 6.6 |  |  |
| RYHTVGRAAGLLMGL [human GPR8 ligand (9-23)] | 4200 | > 10000 |  |  |
| YKHVASPRYHTVGRAAGLLMGL [human GPR8 ligand (2-23)] | 3900 | 7410 |  |  |
| WYKHVASPRYHTVGRAAG [human GPR8 ligand (1-18)] | > 10000 | 6200 |  |  |
| Ac-YKHVASPRYHTVGRAAGLLMGL [[N-Acetyl-Tyr2]-human GPR8 ligand (2-23)] | 7200 | 7000 |  |  |
| HVASPRYHTVGRAAGLLMGL [human GPR8 ligand (4-23)] | 6700 | > 10000 |  |  |
| WYKHVASPRYHTVGRAAGLLMGL [human GPR8 ligand (1-23)] |  | 0.74 |  | 0.025 |
| WYKHVASPRYHTVGRAAGLL [human GPR8 ligand (1-20)] | 0.86 | 0.88 |  |  |
